The supplement of paper PMC7125110
± gives the standard error. For part of these data: Variants at the floor of the assay were thinned out.

B1: glmS ribozyme (parent)
chain: AUAAAAGCGCCAGAACUACAGAAAUGUAGUUGACGAGGAGGAGGUUUAUCGAAUUUUCGGCGGAUGCCUCCAAA

Tests used:
Conditions in all cases: with glucosamine-6-phosphate
[1] = variants of: B1; assay: KM; higher = weaker cofactor use; RNA array
Procedure, shortened: (§1)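 Sequenced MiSeq chips were the platform: E. coli RNA polymerase transcribed barcoded ribozyme variants on them in situ, and a hybridised Cy3 probe tracked these at 37 °C. After glucosamine-6-phosphate (40 μM to 10 mM) in HEPES/KCl/Mg(OAc)2 buffer was flowed in, tiles were imaged over ~14 h. Signals normalised to baseline and to non-cleaving reference variants were reduced to per-tile medians and fit to one- or two-exponential decays to obtain kobs. kcat and KM were derived through weighted Michaelis–Menten fits across concentrations.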

[2] = variants of: B1; assay: self-cleavage kobs at 40 uM GlcN6P; higher = faster cleavage; RNA array
Procedure, shortened: as §1

[3] = variants of: B1; assay: self-cleavage kobs at 160 uM GlcN6P; higher = faster cleavage; RNA array
Procedure, shortened: as §1

[4] = variants of: B1; assay: self-cleavage kobs at 640 uM GlcN6P; higher = faster cleavage; RNA array
Procedure, shortened: as §1

[5] = variants of: B1; assay: self-cleavage kobs at 2500 uM GlcN6P; higher = faster cleavage; RNA array
Procedure, shortened: as §1

[6] = variants of: B1; assay: self-cleavage kobs at 10000 uM GlcN6P; higher = faster cleavage; RNA array
Procedure, shortened: as §1

Variant	KM [1]	self-cleavage kobs at 40 uM GlcN6P [2]	self-cleavage kobs at 160 uM GlcN6P [3]	self-cleavage kobs at 640 uM GlcN6P [4]	self-cleavage kobs at 2500 uM GlcN6P [5]	self-cleavage kobs at 10000 uM GlcN6P [6]
A14U G35A	6.51 ± 1.5 µM					
A15C G38U	67.7 ± 27 µM					
U65C C68G	418 ± 130 µM					
A6U C11G	1370 ± 460 µM					
G44U U56C	4890 ± 1500 µM					
C16U U55G C68U	507 ± 230 µM	0.000134 ± 2.4e-05 s⁻¹	0.000342 ± 0.00016 s⁻¹	0.00106 ± 0.0003 s⁻¹	0.00118 ± 0.00028 s⁻¹	0.00354 ± 0.00087 s⁻¹
G38U A39G	2660 ± 1000 µM					
A39U C70U		0.000786 ± 6.4e-05 s⁻¹	0.00158 ± 0.00038 s⁻¹	0.00436 ± 0.00059 s⁻¹	0.0108 ± 0.0033 s⁻¹	0.0395 ± 0.0076 s⁻¹
C34G A64U		< 1e-05 s⁻¹	< 1e-05 s⁻¹	< 1e-05 s⁻¹	< 1e-05 s⁻¹	< 1e-05 s⁻¹
A15G G43C		< 1e-05 s⁻¹	< 1e-05 s⁻¹	< 1e-05 s⁻¹	< 1e-05 s⁻¹	< 1e-05 s⁻¹
C34G A42U		< 1e-05 s⁻¹	< 1e-05 s⁻¹	< 1e-05 s⁻¹	< 1e-05 s⁻¹	< 1e-05 s⁻¹
A36U A64G U69A C71G		6.16e-05 ± 2.9e-05 s⁻¹				
C10G A33C		< 1e-05 s⁻¹	< 1e-05 s⁻¹		< 1e-05 s⁻¹	< 1e-05 s⁻¹
G40C G51A		< 1e-05 s⁻¹		< 1e-05 s⁻¹	< 1e-05 s⁻¹	< 1e-05 s⁻¹
G7U G38A A48G G60C		< 1e-05 s⁻¹				< 1e-05 s⁻¹
G29U U45G G59C C67U		< 1e-05 s⁻¹				< 1e-05 s⁻¹
A12U A53G		0.00255 ± 0.00025 s⁻¹	0.00496 ± 0.00086 s⁻¹	0.0163 ± 0.0025 s⁻¹		0.125 ± 0.023 s⁻¹
C16A G29A A36U U65A C71U		< 1e-05 s⁻¹		< 1e-05 s⁻¹		
C8G A15G		< 1e-05 s⁻¹	< 1e-05 s⁻¹	< 1e-05 s⁻¹	< 1e-05 s⁻¹	< 1e-05 s⁻¹
A6C A33G		< 1e-05 s⁻¹		< 1e-05 s⁻¹		< 1e-05 s⁻¹
G37U A53U U55A		< 1e-05 s⁻¹				
G40C G41C		< 1e-05 s⁻¹				6.89e-05 ± 1.3e-05 s⁻¹
A15U G59C A64C		< 1e-05 s⁻¹				
A36C A52U		< 1e-05 s⁻¹				< 1e-05 s⁻¹
G32C U45C U69A		< 1e-05 s⁻¹				

Variant	KM [1]	self-cleavage kobs at 40 uM GlcN6P [2]	self-cleavage kobs at 160 uM GlcN6P [3]	self-cleavage kobs at 640 uM GlcN6P [4]	self-cleavage kobs at 2500 uM GlcN6P [5]	self-cleavage kobs at 10000 uM GlcN6P [6]
A33C A36G C67G		< 1e-05 s⁻¹				
C11U G13C C16A U49A		< 1e-05 s⁻¹	< 1e-05 s⁻¹	< 1e-05 s⁻¹		
A36C G41A		< 1e-05 s⁻¹	< 1e-05 s⁻¹	< 1e-05 s⁻¹	< 1e-05 s⁻¹	< 1e-05 s⁻¹
A14G U55G		0.00161 ± 0.00014 s⁻¹	0.00404 ± 0.00073 s⁻¹	0.00984 ± 0.0012 s⁻¹	0.00953 ± 0.0023 s⁻¹	0.0589 ± 0.011 s⁻¹
A39C C50G U55C		< 1e-05 s⁻¹				< 1e-05 s⁻¹
G32C G40A C50U C68A		< 1e-05 s⁻¹				< 1e-05 s⁻¹
G9A U47C		< 1e-05 s⁻¹	< 1e-05 s⁻¹	< 1e-05 s⁻¹	< 1e-05 s⁻¹	
A33U A42U U65G		< 1e-05 s⁻¹				< 1e-05 s⁻¹
G38U G60A		< 1e-05 s⁻¹				
U30C A52C A64C		< 1e-05 s⁻¹				
G43C A48U G51C G63A C71U		< 1e-05 s⁻¹				< 1e-05 s⁻¹
C10A U47G G63C C68G		9.61e-05 ± 3.8e-05 s⁻¹				
C10U G32U A64C		< 1e-05 s⁻¹				< 1e-05 s⁻¹
A48C G51A		< 1e-05 s⁻¹	< 1e-05 s⁻¹	< 1e-05 s⁻¹	< 1e-05 s⁻¹	< 1e-05 s⁻¹
C16U C34U G37U		< 1e-05 s⁻¹				
U45G U69A		0.000333 ± 8.4e-05 s⁻¹			0.000589 ± 0.00025 s⁻¹	0.000362 ± 7.9e-05 s⁻¹
C10G U30A		< 1e-05 s⁻¹	< 1e-05 s⁻¹	< 1e-05 s⁻¹	< 1e-05 s⁻¹	< 1e-05 s⁻¹
U46C G62C		< 1e-05 s⁻¹				< 1e-05 s⁻¹
A42C U55A U57C		< 1e-05 s⁻¹				
A14C U55A U56G		0.002 ± 0.00048 s⁻¹		0.0195 ± 0.0041 s⁻¹	0.0295 ± 0.013 s⁻¹	
C50U A64U		< 1e-05 s⁻¹	< 1e-05 s⁻¹			< 1e-05 s⁻¹
A53U C67G		3.3e-05 ± 8.7e-06 s⁻¹	7.53e-05 ± 2e-05 s⁻¹	0.000519 ± 0.00012 s⁻¹	0.000628 ± 0.0001 s⁻¹	0.00224 ± 0.00024 s⁻¹
C8G A14G U55G		< 1e-05 s⁻¹			< 1e-05 s⁻¹	< 1e-05 s⁻¹
A36G G51A A52G		< 1e-05 s⁻¹				
G35U U45A C50G		< 1e-05 s⁻¹				

Variant	KM [1]	self-cleavage kobs at 40 uM GlcN6P [2]	self-cleavage kobs at 160 uM GlcN6P [3]	self-cleavage kobs at 640 uM GlcN6P [4]	self-cleavage kobs at 2500 uM GlcN6P [5]	self-cleavage kobs at 10000 uM GlcN6P [6]
A15G G29U U56G G63A		< 1e-05 s⁻¹				
C34A A64U		< 1e-05 s⁻¹	< 1e-05 s⁻¹	< 1e-05 s⁻¹		< 1e-05 s⁻¹
G9C G51A A52U C70G		< 1e-05 s⁻¹		< 1e-05 s⁻¹		
G41A G44A		< 1e-05 s⁻¹	< 1e-05 s⁻¹		< 1e-05 s⁻¹	< 1e-05 s⁻¹
C11A G40A		< 1e-05 s⁻¹	< 1e-05 s⁻¹			3.6e-05 ± 1.4e-05 s⁻¹
A42U G43U G60U		< 1e-05 s⁻¹				
A12G G38A G66U		< 1e-05 s⁻¹	< 1e-05 s⁻¹	< 1e-05 s⁻¹		< 1e-05 s⁻¹
A6U G32C G59A		< 1e-05 s⁻¹				< 1e-05 s⁻¹
A48U A52U C67A		< 1e-05 s⁻¹				< 1e-05 s⁻¹
C10A U49A		< 1e-05 s⁻¹	< 1e-05 s⁻¹	< 1e-05 s⁻¹		
A15G G44U G51C A52G U56G		< 1e-05 s⁻¹	< 1e-05 s⁻¹	< 1e-05 s⁻¹		
A12G C50A		< 1e-05 s⁻¹				< 1e-05 s⁻¹
G9A C11A		< 1e-05 s⁻¹	< 1e-05 s⁻¹			
A14G U47A C50A		< 1e-05 s⁻¹				
G60A A64U		< 1e-05 s⁻¹		< 1e-05 s⁻¹	< 1e-05 s⁻¹	
G38U U57G C68A U69A		6.8e-05 ± 3e-05 s⁻¹				5.25e-05 ± 2e-05 s⁻¹
G21A G44U U57G C67A		< 1e-05 s⁻¹				
C8A A36C		< 1e-05 s⁻¹	< 1e-05 s⁻¹		< 1e-05 s⁻¹	< 1e-05 s⁻¹
G40U G51A U54A A64U		< 1e-05 s⁻¹				
A36G A39U A48U C70G		< 1e-05 s⁻¹	< 1e-05 s⁻¹	< 1e-05 s⁻¹	< 1e-05 s⁻¹	< 1e-05 s⁻¹
C11U G40C U46G		< 1e-05 s⁻¹				
G29A A42C		< 1e-05 s⁻¹	< 1e-05 s⁻¹	< 1e-05 s⁻¹		< 1e-05 s⁻¹
G32C G35A G51U		< 1e-05 s⁻¹			< 1e-05 s⁻¹	< 1e-05 s⁻¹
U30G G41U C68A		< 1e-05 s⁻¹				< 1e-05 s⁻¹
G51A G60C		< 1e-05 s⁻¹		< 1e-05 s⁻¹		

Variant	KM [1]	self-cleavage kobs at 40 uM GlcN6P [2]	self-cleavage kobs at 160 uM GlcN6P [3]	self-cleavage kobs at 640 uM GlcN6P [4]	self-cleavage kobs at 2500 uM GlcN6P [5]	self-cleavage kobs at 10000 uM GlcN6P [6]
C11G A39G G63U		< 1e-05 s⁻¹			< 1e-05 s⁻¹	< 1e-05 s⁻¹
A33G G40U G59U		< 1e-05 s⁻¹	< 1e-05 s⁻¹	< 1e-05 s⁻¹	< 1e-05 s⁻¹	
C50G C58A C70U		9.84e-05 ± 1.6e-05 s⁻¹			0.000176 ± 4e-05 s⁻¹	0.000117 ± 2.1e-05 s⁻¹
A42G A52G U65G		< 1e-05 s⁻¹			8.47e-05 ± 2.8e-05 s⁻¹	0.000346 ± 8.1e-05 s⁻¹
U46G U47G G59A U65G		< 1e-05 s⁻¹				
C8G U55C		< 1e-05 s⁻¹	< 1e-05 s⁻¹	< 1e-05 s⁻¹		
A15C G35A		< 1e-05 s⁻¹	< 1e-05 s⁻¹	< 1e-05 s⁻¹	< 1e-05 s⁻¹	< 1e-05 s⁻¹
C8U G13U		< 1e-05 s⁻¹		< 1e-05 s⁻¹	< 1e-05 s⁻¹	< 1e-05 s⁻¹
C8A C50U G51C A53C U65A		< 1e-05 s⁻¹		< 1e-05 s⁻¹		
U31C C50G C70U		7.5e-05 ± 2.8e-05 s⁻¹	7.9e-05 ± 1.5e-05 s⁻¹	7.86e-05 ± 1.6e-05 s⁻¹	4.19e-05 ± 1.2e-05 s⁻¹	4.29e-05 ± 1.3e-05 s⁻¹
G38U U69G		0.000121 ± 1.9e-05 s⁻¹		9.8e-05 ± 4.7e-05 s⁻¹	7.1e-05 ± 1.6e-05 s⁻¹	4.47e-05 ± 9.9e-06 s⁻¹
U31C G35U A39C G44U U55A		< 1e-05 s⁻¹	< 1e-05 s⁻¹	< 1e-05 s⁻¹	< 1e-05 s⁻¹	< 1e-05 s⁻¹
C50G C58G G66U C68A		6.12e-05 ± 1.5e-05 s⁻¹	0.000177 ± 4e-05 s⁻¹	0.000228 ± 8e-05 s⁻¹	0.000368 ± 6.5e-05 s⁻¹	0.00013 ± 2e-05 s⁻¹
U30C A42U G44A A48G G59A		< 1e-05 s⁻¹			< 1e-05 s⁻¹	
A14G U47G C58G C71U		4.07e-05 ± 2e-05 s⁻¹				9.43e-05 ± 1.6e-05 s⁻¹
A36C G41C U69A		< 1e-05 s⁻¹				
G9C U54A		< 1e-05 s⁻¹	< 1e-05 s⁻¹			< 1e-05 s⁻¹
A6G G40U A48C G62A U65G		< 1e-05 s⁻¹				< 1e-05 s⁻¹
A15G C50G C70U		5.62e-05 ± 1.6e-05 s⁻¹		0.000167 ± 3.8e-05 s⁻¹	0.00023 ± 5.9e-05 s⁻¹	4.88e-05 ± 1.3e-05 s⁻¹
C8G G59C		< 1e-05 s⁻¹		< 1e-05 s⁻¹		< 1e-05 s⁻¹
A14G U31C G41C G63A		< 1e-05 s⁻¹				< 1e-05 s⁻¹
A15U C16G C58U G59U		< 1e-05 s⁻¹		< 1e-05 s⁻¹	< 1e-05 s⁻¹	
